Assays:
[1] = molecular target: T1, Zif268 (three-finger peptide) (UniProt P08046 P08046:333-421); assay: EMSA; room temp
[2] = molecular target: T1, Zif268 (three-finger peptide); assay: cell_activity; 293 cells
[3] = molecular target: T1, Zif268 (three-finger peptide); assay: EMSA; pH 7.0, 100 mM NaCl, 5 mM MgCl2, Zn, room temp

B1: N//Z site (dsDNA)
DNA 1: TCTGCAAGGGTTCAGTGCGTGGGCGGTAAG
DNA 2: CTTACCGCCCACGCACTGAACCCTTGCAGA
Kd [1]: 0.014 nM

B2: Z site in luciferase reporter promoter (dsDNA)
DNA 1: GCGTGGGCG
DNA 2: CGCCCACGC
activity [2]: 13 fold repression

B3: NZ site (dsDNA)
DNA 1: TCTGCAAGGGTTCAGCGTGGGCGGTAAG
DNA 2: CTTACCGCCCACGCTGAACCCTTGCAGA
Kd [3]: 0.012 nM

B4: N//Z site in luciferase reporter promoter (dsDNA)
DNA 1: AAGGGTTCAGTGCGTGGGCG
DNA 2: CGCCCACGCACTGAACCCTT
activity [2]: 15 fold repression

B5: N/Z site in luciferase reporter promoter (dsDNA)
DNA 1: AAGGGTTCAGGCGTGGGCG
DNA 2: CGCCCACGCCTGAACCCTT
activity [2]: 8.9 fold repression

B6: N/Z site (dsDNA)
DNA 1: TCTGCAAGGGTTCAGGCGTGGGCGGTAAG
DNA 2: CTTACCGCCCACGCCTGAACCCTTGCAGA
Kd [1]: 0.014 nM

Source: patent US6903185
